Test results taken from publication doi:10.1101/2022.12.14.520423.

Molecular target: T1, CLAMP (CLAMPmel) (Drosophila melanogaster, UniProt Q9V9N4 1-561)
T1 sequence: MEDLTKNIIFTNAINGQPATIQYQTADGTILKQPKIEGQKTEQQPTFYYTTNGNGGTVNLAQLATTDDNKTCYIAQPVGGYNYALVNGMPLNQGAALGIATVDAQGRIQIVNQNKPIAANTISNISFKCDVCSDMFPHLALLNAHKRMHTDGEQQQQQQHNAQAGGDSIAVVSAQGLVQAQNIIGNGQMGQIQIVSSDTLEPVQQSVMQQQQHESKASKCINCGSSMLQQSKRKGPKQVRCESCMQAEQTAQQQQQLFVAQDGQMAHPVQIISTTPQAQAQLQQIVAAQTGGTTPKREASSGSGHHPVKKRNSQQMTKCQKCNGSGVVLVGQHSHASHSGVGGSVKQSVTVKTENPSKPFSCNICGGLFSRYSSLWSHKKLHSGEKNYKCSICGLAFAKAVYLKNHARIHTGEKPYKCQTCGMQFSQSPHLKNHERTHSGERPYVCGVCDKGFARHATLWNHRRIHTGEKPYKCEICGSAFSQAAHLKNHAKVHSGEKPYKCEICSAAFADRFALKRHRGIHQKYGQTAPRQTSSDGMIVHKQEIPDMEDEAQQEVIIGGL
Test: EMSA

B1: Dvir 2 (dsDNA)
DNA 1: TACCAAAAACTCAAAAAGACGAGCGAGTGAAAACATATTTCCATCTCGCTCACATACTAC
DNA 2: GTAGTATGTGAGCGAGATGGAAATATGTTTTCACTCGCTCGTCTTTTTGAGTTTTTGGTA
binding result: binds
